± gives the standard deviation.
Assay: protein stability index of a GFP-peptide fusion (GPS, HEK-293T) (PSI 1-6); higher = more stable
Conditions: c terminus: a fixed tail appended
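Also: 24-mer peptide tiles fused after GFP, lentivirally expressed, FACS-sorted into six equal bins by GFP/DsRed ratio, decoded by Illumina sequencing, PSI is the read-weighted mean bin number.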

Sequence | protein stability index (treatment: DMSO) | protein stability index (treatment: MLN4924 1 uM, 8 h)
PEIAQNFSAPDPPRPRPVSLSLRL [SMTNL2] | 2.91 ± 0.27 | 3.04 ± 0.22
EKGEKGDRAGDASKDILLGPWDMV [SCARA5] | 4.41 ± 0.37 | 4.71 ± 0.36
KVIDDTNITRLQLETEIEALKEEL [KRT18] | 4.2 ± 0.18 | 4.36 ± 0.23
DRLWRPSKVLSLQDLCCRAVVSCT [RAB40B] | 3.01 ± 0.17 | 2.8 ± 0.21
TQNHAASALPTGSPKRGTAPGDLS [FBF1] | 5.08 ± 0.18 | 5.13 ± 0.21
AGNRNSMVIHIPEEPRPSRPRYKA [KCNK9] | 4.14 ± 0.35 | 4.24 ± 0.13
TRWYRAPELLVGDTQYGSSVDIWA [CDKL4] | 1.97 ± 0.59 | 2.26 ± 0.39
CMAFELATGDYLFEPHSGEDYSRD [SRPK2] | 3.87 ± 0.47 | 4.12 ± 0.25
LLDLDPEVECLKANTNEVLWAVVA [GOLPH3] | 1.94 ± 0.21 | 2.22 ± 0.41
RMPLLTPRYITDVIDAEPFIRCSL [KLHL12] | 2.27 ± 0.28 | 1.84 ± 0.52
MRSAAVLALLLCAGQVTALPVNSP [CHGA] | 3.21 ± 0.45 | 2.83 ± 0.57
PCKQCKKKYVKGDVSLCRWHPKPY [FBXO34] | 3.09 ± 0.34 | 3.07 ± 0.51
EECRMSGEFPSPVSISIISSTSGG [KRT71] | 3.59 ± 0.25 | 3.6 ± 0.4
LLFSGGLSESETGPMEEVERQVLP [PBXIP1] | 4.06 ± 0.27 | 4.18 ± 0.38
VDTLNVKDIAPEKQLLNSAVIAQQ [DLC1] | 4.53 ± 0.36 | 4.55 ± 0.24
LPPSMERGYPPPRDSYSSSSRGAP [RBMX] | 4.5 ± 0.17 | 4.53 ± 0.2
DGLKRRQQLEEELLRAKIEVEKLK [RAD54B] | 4.67 ± 0.31 | 4.85 ± 0.32
AKEMSVPFYTSRIDEVLLHQDVDL [GFOD1] | 3.74 ± 0.59 | 3.88 ± 0.35
SRSNGSSPEARDARSPSGPSGSLE [TRIM29] | 5.16 ± 0.17 | 5.29 ± 0.3
YLQDHEKKLRLVFKSLDKKNDGRI [SLC25A25] | 3.3 ± 0.13 | 3.43 ± 0.41
SSSASSSFSEEGAVGYSSDSETLD [NFE2L1] | 5.65 ± 0.13 | 5.655 ± 0.043
KQGSMNFRFIPVLFPNAKKEHVPT [TRAF3IP2] | 2.41 ± 0.41 | 2.48 ± 0.49

Sequence | protein stability index (treatment: DMSO) | protein stability index (treatment: MLN4924 1 uM, 8 h)
TADRIIRVYDGREILTCGRDGEPE [RBBP5] | 4.55 ± 0.12 | 4.49 ± 0.31
DSEEEVIERANNVKYGLAATVWSS [ALDH8A1] | 4.03 ± 0.17 | 4.15 ± 0.17
LTHLVKLDLSKNKLQQLPADFGRL [LRRC59] | 2.65 ± 0.19 | 2.7 ± 0.17
VTSNGSIGRDPPAETQPQNPPAQP [CLPTM1] | 5.41 ± 0.27 | 5.41 ± 0.15
ERSDLEEDNEREGTENGAIDAVPV [ZC3H15] | 5.5 ± 0.19 | 5.5 ± 0.33
PYYLRSFLVVLKTVLENEDDMLLF [FAN1] | 2.27 ± 0.36 | 2.26 ± 0.25
DGKSLVSVTKEGLELPEDEEEKKK [HSP90AB1] | 5.61 ± 0.2 | 5.44 ± 0.3
AEDLRMLDASGEKMNGSHRDQGSS [IKZF1] | 5.18 ± 0.43 | 5.34 ± 0.23
DKSPSTVRDQGPSIPLTPGDTPIR [FBF1] | 5.08 ± 0.18 | 5.26 ± 0.18
KFLAKVNGSDPRSFPLWYEEALKD [MAGEA10] | 2.62 ± 0.39 | 3.06 ± 0.4
INQVLLFLLIVTLCVILYKKVHKG [GLT8D2] | 3.12 ± 0.29 | 3.04 ± 0.9
NAAKTCPTMPALFSDHTFRHYAYL [INTS4] | 2.03 ± 0.42 | 2.13 ± 0.29
ARPTEVLAGTQLLYAFFTRTHGDM [TRIB3] | 2.43 ± 0.45 | 2.33 ± 0.38
VAQGPTNQGLNVMVWNQNGKSPSI [ADAMTSL2] | 3.11 ± 0.4 | 3.62 ± 0.23
STLKEVKPTVFIGVPQIWEKIHEM [ACSBG2] | 2.1 ± 0.24 | 2.27 ± 0.31
DGSLILVSASRDKTLRVWDLKDDG [WSB1] | 2.74 ± 0.31 | 3.03 ± 0.21
TLSAELVPWLNLKKQDENEGIKVE [CEP70] | 4.33 ± 0.057 | 4.22 ± 0.098
TCTWKLPTLAKFSPYLGQMINLRR [PRAME] | 2.28 ± 0.27 | 1.89 ± 0.3
FSTGIKMGQHISLAPIHKLEEALY [MNAT1] | 2.28 ± 0.48 | 2.08 ± 0.26
RSLSERTVDKCFGRKKYDIDPRNG [SPATS1] | 4.39 ± 0.24 | 4.73 ± 0.33
APFGRISDARVVKDMATGKSKGYG [TIA1] | 4.47 ± 0.17 | 4.35 ± 0.18
DLNRHLDEMCANNDFVQVDPGQVG [FAN1] | 4.29 ± 0.4 | 4.63 ± 0.058

Sequence | protein stability index (treatment: DMSO) | protein stability index (treatment: MLN4924 1 uM, 8 h)
EDHIDDAKYCGHLYGLGSGSSYVQ [CNOT7] | 3.38 ± 0.16 | 3.41 ± 0.26
MDRSLVQDAPLSDCTETIEGLELT [ADD1] | 5.27 ± 0.28 | 5.32 ± 0.19
IDDLFAFVIKMPVMYRIGCLRDDV [CLPTM1] | 3.07 ± 0.97 | 3.2 ± 0.74
LFQSPLFAKAGDTLSGTCLLIANK [CARM1] | 2.56 ± 0.76 | 2.81 ± 0.47
IEKFIREPSLKATMGLAGRARVKE [ALG2] | 3.6 ± 0.18 | 3.62 ± 0.33
GERPEEGVAGGLNRNQGLNRLMLA [TCF25] | 3.88 ± 0.44 | 4.02 ± 0.47
APRGKNGFTPLHMAVDKDTTNVGR [FEM1A] | 4.37 ± 0.19 | 4.44 ± 0.18
ENRVSTLRVSPDGTAFCSGSWDHT [GNB5] | 3.95 ± 0.14 | 3.9 ± 0.19
KNWWVRGILTLAMIAFFFIIIYLG [CDS2] | 3.07 ± 0.36 | 2.85 ± 0.52
EQLGSGDGIPQVYYFGPCGKYNAM [CSNK1G3] | 2.34 ± 0.14 | 2.56 ± 0.17
KPEDTAEDLTAKRKRMKMDKTCSK [FAM9B] | 5.3 ± 0.2 | 5.43 ± 0.11
MAPLQPSTSRAHKLPSRRQPGLLH [FAM189A2] | 3.62 ± 0.18 | 3.72 ± 0.28
EAVESTLQTPLDIRLKESINCQLS [TRIM14] | 4.38 ± 0.44 | 4.34 ± 0.36
EIIELRRTVNALEIELQAQHNLRD [KRT34] | 2.89 ± 0.36 | 3.03 ± 0.22
DAEGLAARDVQKIIGDYFSDQDPR [INTS4] | 4.95 ± 0.15 | 4.86 ± 0.32
LPTTKMAQTNPTPGSLGPWKITIY [CRYBA1] | 2.71 ± 0.48 | 2.19 ± 0.49
KEQLSNDRETQEGKPPTAHLDRTS [ELOA2] | 5.56 ± 0.32 | 5.59 ± 0.16
MPLKWKTSSPAIWKFPVPVLKTSR [KLHL13] | 2.46 ± 0.052 | 2.47 ± 0.44
FKDSAGKSPTGLKLKNDTENHQPV [ZNF75A] | 4.88 ± 0.22 | 5.03 ± 0.18
SVVTEDGPEPKDKGSLPQPPITEV [ZNF232] | 5.5 ± 0.2 | 5.48 ± 0.18
DGNKDVYLSLLRMYLSPPSIHCLG [VPS39] | 2.94 ± 0.57 | 2.72 ± 0.33
